Results on eight molecules are retold here after patent publication US20230220057A1 (STAIDSON BEIJING BIOPHARMACEUTICALS, published 2023).

Like-named read-outs stand apart in the source and are kept apart here.

Assay [1] addresses recombinantly produced human-NGF (human, UniProt P01138 122-241, limits assumed). The experiment in a line: ELISA, human NGF coated, IgG titrated. As for the experimental part:
NGF binding ELISA assay: In human NGF binding ELISA, Corning 3366 high binding 96 well plates were coated with recombinantly produced human-NGF at 1 μg per ml, 50 μl/well in 1×PBS, and incubated overnight at 4° C. The plates were washed and blocked with 250 μl of 1×PBS/1% BSA at least 30 minutes at room temperature. 50 μl of culture supernatants, after 1:1 diluted by the PBS/BSA diluent, or the purified antibodies diluted serially from a certain concentration with the diluent, were added per well, and incubated at 37° C. for 2 hours. After washing, a secondary antibody, goat anti-human IgG Fc AP (Southern biotech) was applied at a dilution of 1:3000 in PBS/BSA. The plates were incubated for 1 hour at RT and washed. After adding the PNPP substrate, the ODs at 405 nm were read.
NGF binding ELISA assay: NGF binding ELISA assay was performed as described in Example 1.

The target in assay [2] is T1, human NGF-Fc4 (IgG4-Fc) (human, UniProt P01138 122-241, limits assumed).
T1 construct: not shown: human IgG4 Fc
T1 sequence (P01138 122-241 limits assumed): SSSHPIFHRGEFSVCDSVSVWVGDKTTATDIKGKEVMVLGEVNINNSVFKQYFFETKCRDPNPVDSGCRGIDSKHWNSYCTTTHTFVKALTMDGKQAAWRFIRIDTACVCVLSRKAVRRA
The experiment in a line: competition ELISA: antibody pre-incubated with human NGF-Fc4, binding to coated TrkA-Fc. The procedure: TrkA inhibition ELISA assay: The TrkA inhibition ELISA assay was designed to identify the anti-NGF antibodies that have the capability of blocking NGF binding to its receptor TrkA. In this assay, human TrkA-Fc (IgG1-Fc, Sinobiological) was coated at 1 μg/ml in the 96-well plates and incubated overnight at 4° C. Antibodies, from cell culture supernatants or after purified, in different dilutions, were pre-incubated with human NGF-Fc4 (IgG4-Fc) at a final concentration of 70 ng/mL for 2 hours in 37° C. A total of 50 μl of the reaction mixtures were then transferred into the TrkA-Fc coated 96-well plates and incubated in room temperature for 2 hours. After washing, a secondary mouse anti-human IgG4-AP (Southern biotech) was added at a dilution of 1:1000 After one hour in room temperature, the plates were washed, and after adding PNPP substrate, ODs at 405 nm were read.
TrkA inhibition ELISA assay: The optimized anti-NGF antibodies Ab4, Ab6, Ab10, Ab16, Ab36, Ab37, Ab44, Ab45, Ab46, Ab47, Ab48, Ab49, Ab52, Ab54, Ab55, Ab56, Ab57, Ab58, Ab59, Ab60, Ab61 and the reference antibody Tanezumab (Pfizer), a humanized antibody from mouse hybridoma were further analyzed for their abilities to block NGF binding to its receptor TrkA. TrkA inhibition assay was performed as described in Example 1.

Assay [3] addresses T2, human NGF (R&D system) (human, UniProt P01138 122-241). The experiment in a line: cell-based or functional assay.
For assay [4], the target named is T1, human NGF-Fc4 (IgG4-Fc). The experiment in a line: competition ELISA: antibody pre-incubated with human NGF-Fc4, binding to coated p75-Fc. The procedure:
p75 inhibition ELISA assay: The p75 inhibition assay was designed to identify anti-NGF antibodies that were capable of inhibiting NGF binding to p75. In this assay, human p75-Fc (IgG1-Fc, Sinobiological) was coated at 1 μg/mL in the 96-well plates and incubated overnight at 4° C. Anti-NGF antibodies, from supernatants directly or after purified, in different dilutions, were pre-incubated with human NGF-Fc4 (IgG4-Fc) at a final concentration of 350 ng/mL for 2 hours in 37° C. A total of 50 μl of the reaction mixtures were then transferred into the p75-Fc coated 96-well plates and incubated in room temperature for 2 hrs. After washing, a secondary mouse anti-human IgG4-AP (Southern biotech) was added at a dilution of 1:1000. After 1 hour in room temperature, the plates were washed, and after adding PNPP substrate, ODs at 405 nm were read.
p75 inhibition ELISA assay: The optimized anti-NGF antibodies Ab4, Ab61, and the reference antibody Tanezumab, a humanized antibody from mouse hybridoma were further analyzed for their abilities to block NGF binding to its receptor p75. P75 inhibition assay was performed as described in Example 1.

The next assay deals with T3, BDNF (UniProt P23560 129-247).
T3 construct: also called brain-derived neurotrophic factor
T3 sequence (looked up): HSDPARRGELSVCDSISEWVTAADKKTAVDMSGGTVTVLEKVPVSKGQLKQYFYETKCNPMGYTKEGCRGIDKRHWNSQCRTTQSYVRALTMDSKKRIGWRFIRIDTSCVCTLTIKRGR
The experiment in a line: ELISA.

The next assay addresses T4, NT4 (UniProt P34130 81-210).
T4 construct: also called neurotrophin-4
T4 sequence (looked up): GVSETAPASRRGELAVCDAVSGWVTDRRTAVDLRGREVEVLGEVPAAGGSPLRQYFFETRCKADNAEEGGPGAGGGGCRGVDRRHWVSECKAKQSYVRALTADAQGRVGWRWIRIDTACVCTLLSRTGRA
The experiment in a line: ELISA.

The next assay addresses T5, NT3 (UniProt P20783 139-257).
T5 construct: also called neurotrophin-3
T5 sequence (looked up): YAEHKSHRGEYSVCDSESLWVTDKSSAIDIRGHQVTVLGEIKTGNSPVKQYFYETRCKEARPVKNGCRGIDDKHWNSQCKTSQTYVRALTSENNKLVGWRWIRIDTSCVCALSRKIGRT
Briefly: ELISA.

Assay [5] deals with T2, human NGF (R&D system). The experiment in a line: cell-based or functional assay. The source holds these as a separate data set.
The target in assay [6] is T2, human NGF (R&D system). Briefly: cell-based or functional assay. The source holds these as a separate data set.
For assay [7], the target named is T2, human NGF (R&D system). The experiment in a line: cell-based or functional assay. The source holds these as a separate data set.

Sequence of recombinantly produced human-NGF (P01138 122-241 limits assumed): as the sequence (P01138 122-241 limits assumed) above
T2 sequence (P01138 122-241 limits assumed): as the sequence (P01138 122-241 limits assumed) above

B1: Tanezumab (antibody, part only; not given: constant regions, V domains shown, not shown: another chain or arm of the molecule)
VH: QVQLQESGPGLVKPSETLSLTCTVSGFSLIGYDLNWIRQPPGKGLEWIGIIWGDGTTDYNSAVKSRVTISKDTSKNQFSLKLSSVTAADTAVYYCARGGYWYATSYYFDYWGQGTLVTVSS
VL: DIQMTQSPSSLSASVGDRVTITCRASQSISNNLNWYQQKPGKAPKLLIYYTSRFHSGVPSRFSGSGSGTDFTFTISSLQPEDIATYYCQQEHTLPYTFGQGTKLEIK
Take B1: in [1], the EC50 was 0.00937 ng/mL. This molecule also came in with an IC50 with human NGF-Fc4 (IgG4-Fc) [2] of 60.2 ng/mL. Moreover, in the assay with human NGF (R&D system) [3], the Chicken DRG Neurite Outgrowth Inhibition Assay IC50 amounted to 0.0727 nM and the TF1 Cell Proliferation Inhibition Assay IC50 is 0.17 nM. In the assay with human NGF-Fc4 (IgG4-Fc) [4], the IC50 stood at 525 ng/mL.

B2: Ab6 (antibody, human IgG1, V domains shown)
VH: EVQLVQSGAEVKKPGATVKISCKVSGYTFITYWISWVQQAPGKGLEWMGAIDPSDSDARYSPSFQGRVTITADTSTDTAYMELSSLRSEDTAVYYCAKSDPGYSGYSLLYGFDSWGQGTLVTVSS
VL: DVVMTQSPLSLPVTLGQPASISCRSSQSLVQRNGNTYLSWFQQRPGQPPRLLIYQVSNRYSGVPDRFSGSGSGTDFTLKISRVEAEDVGVYYCGQGAHLPLTFGQGTKVEIK
With B2, in [1], the EC50 was 0.021 ng/mL. The IC50 in the assay with human NGF-Fc4 (IgG4-Fc) [2] was determined as 76.9 ng/mL. In addition, the binding result with BDNF, in the assay with NT4 and with NT3 was “no binding (tested: 100 µg/mL)” in each case. In the assay with human NGF (R&D system) [5], the “TF1 Cell Proliferation Inhibition Assay IC50” value worked out at 0.17 nM.

B3: Ab44 (antibody, human IgG1, V domains shown)
VH: EVQLVQSGAEVKKPGESLKISCKGSGYSFITYWISWVRQMPGKGLEWMGAIDPSDSDARYSPSFQGQVTISADKSISTAYLQWSSLKASDTAMYYCAKSDPGYSGYSLLYGFDSWGQGTLVTVSS
VL: DVVMTQSPLSLPVTLGQPASISCRSSQSLVQRNGNTYLSWYQQRPGQSPRLLIYQVSNRYSGVPDRFSGSGSGTDFTLKISRVEAEDVGVYYCGQGAHLPLTFGQGTKVEIK
Turning to B3, in assay [1], the EC50 is 0.0129 ng/mL. This molecule registered a concentration for half-maximal inhibition (IC50) in the assay with human NGF-Fc4 (IgG4-Fc) [2] of 130 ng/mL. The binding result in the assay with BDNF, with NT4 and with NT3 was “no binding (tested: 100 µg/mL)” each time.

B4: Ab61 (antibody, human IgG1, V domains shown)
VH: EVQLVQSGAEVKKPGATVKISCKVSGYTFITYWISWVQQAPGKGLEWMGAIDPSDSDARYSPSFQGRVTITADTSTDTAYMELSSLRSEDTAVYYCAKSDPGYSGYSLLYGFDSWGQGTLVTVSS
VL: DVVMTQSPLSLPVTLGQPASISCRSSQSLVQRNANTYLSWYQQRPGQSPRLLIYQVSNRYSGVPDRFSGSGSGTDFTLKISRVEAEDVGVYYCGQGAHLPLTFGQGTKVEIK
B4: the EC50 in assay [1] was 0.014 ng/mL. Moreover, the figures for the IC50 in the assay with human NGF-Fc4 (IgG4-Fc) [2] and with human NGF-Fc4 (IgG4-Fc) [4] were 70 ng/mL and 577 ng/mL, respectively. The “ERK1/2 Signaling Pathway Inhibition Assay IC50 (PC12 cells)” value with human NGF (R&D system) [6] amounted to 0.175 nM. In addition, the “Chicken DRG Neurite Outgrowth Inhibition Assay IC50” value with human NGF (R&D system) [7] came out at 0.0786 nM. In addition, the “TF1 Cell Proliferation Inhibition Assay IC50” value with human NGF (R&D system) [5] came out at 0.346 nM.

B5: Ab54 (antibody, human IgG1, V domains shown)
VH: EVQLVQSGAEVKKPGESLKISCKISGYSFITYWISWVRQMPGKGLEWMGAIDPSDSDARYSPSFQGQVTISADKSISTAYLQWSSLKASDTAMYYCAKSDPGYSGYSLLYGFDSWGQGTLVTVSS
VL: DVVMTQSPLSLPVTLGQPASISCRSSQSLVQRNGNTYLSWYQQRPGQSPRLLIYQVSNRYSGVPDRFSGSGSGTDFTLKISRVEAEDVGVYYCGQGAHLPLTFGQGTKVEIK
For B5, the EC50 in assay [1] worked out at 0.0257 ng/mL. The IC50 with human NGF-Fc4 (IgG4-Fc) [2] stood at 70.2 ng/mL. For the same molecule, the binding result with BDNF, with NT4 and in the assay with NT3 was “no binding (tested: 100 µg/mL)” in each case. Moreover, the “TF1 Cell Proliferation Inhibition Assay IC50” value in the assay with human NGF (R&D system) [5] was found to be 0.183 nM.

B6: Ab55 (antibody, human IgG1, V domains shown)
VH: EVQLVQSGAEVKKPGESLKISCKISGYSFITYWISWVRQMPGKGLEWMGAIDPSDSDARYSPSFQGQVTISADKSISTAYLQWSSLKASDTAMYYCAKSDPGYSGYSLLYGFDSWGQGTLVTVSS
VL: DVVMTQSPLSLPVTLGQPASISCRSSQSLVQRNGNTYLSWYQQRPGQPPRLLIYQVSNRYSGVPDRFSGSGSGTDFTLKISRVEAEDVGVYYCGQGAHLPLTFGQGTKVEIK
With B6, the EC50 in [1] amounted to 0.0185 ng/mL. In the assay with human NGF-Fc4 (IgG4-Fc) [2], the concentration for half-maximal inhibition (IC50) turned out to be 75.7 ng/mL. Besides, in the assay with human NGF (R&D system) [5], the “TF1 Cell Proliferation Inhibition Assay IC50” value is 0.184 nM.

B7: Ab10 (antibody, human IgG1, V domains shown)
VH: EVQLVQSGAEVKKPGATVKISCKVSGYTFITYWISWVQQAPGKGLEWMGAIDPSDSDARYSPSFQGRVTITADTSTDTAYMELSSLRSEDTAVYYCAKSDPGYSGYSLLYGFDSWGQGTLVTVSS
VL: DIVMTQSPLSLPVTLGQPASISCRSSQSLVQRNGNTYLSWFQQRPGQPPRLLIYQVSNRYSGVPDRFSGSGSGTDFTLKISRVEAEDVGVYYCGQGAHLPLTFGQGTKVEIK
With B7, in [1], the EC50 stood at 0.0134 ng/mL. In the assay with human NGF-Fc4 (IgG4-Fc) [2], this molecule had an IC50 of 80.4 ng/mL. The “TF1 Cell Proliferation Inhibition Assay IC50” value with human NGF (R&D system) [5] is 0.254 nM.

B8: Ab36 (antibody, human IgG1, V domains shown)
VH: EVQLVQSGAEVKKPGATVKISCKVSGYTFITYWISWVQQAPGKGLEWMGAIDPSDSDARYSPSFQGRVTITADKSTDTAYMELSSLRSEDTAVYYCAKSDPGYSGYSLLYGFDSWGQGTLVTVSS
VL: DVVMTQSPLSLPVTLGQPASISCRSSQSLVQRNGNTYLSWFQQRPGQPPRLLIYQVSNRYSGVPDRFSGSGSGTDFTLKISRVEAEDVGVYYCGQGAHLPLTFGQGTKVEIK
For B8, the EC50 in assay [1] turned out to be 0.0218 ng/mL. For the same molecule, the IC50 with human NGF-Fc4 (IgG4-Fc) [2] was determined as 89.9 ng/mL. Moreover, the binding result with BDNF, with NT4 and in the assay with NT3 was “no binding (tested: 100 µg/mL)” each time. Also, in the assay with human NGF (R&D system) [5], the “TF1 Cell Proliferation Inhibition Assay IC50” value was 0.234 nM.
